Results taken from article PMC314469, “Protein Interaction Networks by Proteome Peptide Scanning” (PLoS Biology, 2004).

T1: Abp1 SH3 (ABP1_YEAST), P15891
T1 chain: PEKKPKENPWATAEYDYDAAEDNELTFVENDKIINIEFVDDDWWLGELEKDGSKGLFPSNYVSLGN


Biological target: T1, Abp1 SH3 (ABP1_YEAST), P15891
Experiment: SPOT array

Binder	normalised SPOT signal, Boehringer light units (BLU); mean over the file's lines of this peptide
ASNFVQRPVISKP [YDL145C 797-809]	2410
ASQPEPTTNEPAKP [YJL041W 251-264]	114
ASSAELRPLLERP [YDL129W 167-179]	78.5
ASSFQLPPGVKKP [YPL019C 671-683]	143
ASSKLKKPPKAKP [YML059C 513-525]	2150
ASSKMGAPWSVKP [YGL133W 239-251]	146
ASSSPFIPKKRKP [YLR430W 2217-2229]	2110
ASTLGITPADSKP [YMR016C 645-657]	93.1
ASTYGRSPSGFRP [YKR089C 707-719]	517
ATFETKFLVVPFKP [YDR200C 169-182]	74
ATKVDATPEESKP [YLR335W 584-596]	103
ATLDGKLKHIPRRP [YEL007W 23-36]	630
ATSIGNSPVTAKP [YAR033W 173-185]	71
ATTEFETPELFKP [YIL031W 418-430]	78.7
ATTNDDKKTEPDKP [YJL041W 183-196]	63.8
AVLLIKKNKLPPRP [YLR281C 14-27]	9430
AWYISYGEWGPRRP [YIL111W 69-82]	78.4
AYNLNVPPPKKRP [YHR009C 132-144]	1510
SAKPMNIPEVLKP [YLR077W 535-547]	144
SASILLLEALPKKP [YDR135C 180-193]	112

Binder	normalised SPOT signal, Boehringer light units (BLU); mean over the file's lines of this peptide
SDTDTLPEAPPAKP [YOR066W 218-231]	108
SEMFRDLPESKKP [YOR175C 203-215]	86.3
SFKIFPLPKDGKP [YOR056C 307-319]	102
SFTAYSSPKKNKP [YPL100W 257-269]	324
SGVLITDKEYPVRP [YKL196C 76-89]	56
SHTKNTHPDFSKP [YLR374C 54-66]	39.3
SINNSEVPTNDKP [YPR068C 139-151]	72.1
SKVDDLIPLASRP [YGL044C 219-231]	111
SLWWNLEPQESKP [YMR003W 182-194]	68
SRIPSLAPHFGKP [YKL103C 202-214]	99.3
SSQEDGQPRVLKP [YLR106C 2240-2252]	118
SSQGINVPGTKKP [YIL029C 115-127]	178
SSSSSGLPATDKP [YOR068C 68-80]	59.6
SSYGSWSPYASKP [YMR244W 79-91]	46.2
SVRIIKLPTVIKP [YDR407C 928-940]	175
SVYALSSQDEPIRP [YLR450W 583-596]	37.7
DAENIRVNFVPSKP [YER047C 185-198]	133
DAGPSFSPLHKKP [YDR096W 741-753]	231
DASSVELTEVPSKP [YDR464W 561-574]	25.2
DSLFTKSLEDPEKP [YBR257W 10-23]	113

Binder	normalised SPOT signal, Boehringer light units (BLU); mean over the file's lines of this peptide
DSVRYFEPKTRRP [YER090W 132-144]	659
DDFSEIKSNSPSKP [YOL125W 257-270]	58.4
DDGTFSIYSIPSKP [YPL100W 471-484]	169
DDLETYVPHKKRP [YOL084W 269-281]	120
DDLIRLTVKKPARP [YKL220C 443-456]	446
DESFTASDAVPKKP [YPR121W 328-341]	112
DESFTASDVIPKKP [YOL055C 307-320]	142
DEEDDEDPVSPKP [YGL197W 684-696]	90.3
DEGYRESELPPTKP [YGR013W 516-529]	62.8
DELPKYEDLFPKKP [YKL020C 937-950]	132
DENEKESRHYPIKP [YMR147W 118-131]	104
DESTVNEPKTRRP [YLR417W 380-392]	95.6
DFRNPLLPIDNRP [YGL170C 266-278]	138
DGGMAFNPDPKKP [YER095W 332-344]	105
DGKILPLPKADKP [YGR134W 1092-1104]	18.9
DGKPTATPSPFRP [YMR153W 198-210]	158
DGKTMTKPFVEKP [YLR410W 340-352]	171
DGKVSPPPIRNRP [YPL150W 616-628]	6430
DGTAAAGPLDLKP [YCR077C 93-105]	47.1
